{"source": "patent US20230088269A1", "binders": {"B1": {"name": "170B2 Fab (Fab, from another filing, V domains shown)", "VH": "EVQLVESGGGLVQPGGSLRLSCAASGFTFSSSWMYWVRQAPGKGLEFVSVINTRSGITHYVESVKGRFTISTDNAKNTLFLQMNSLKSEDTAVYYCATRIQGLIDYWGQGTQVTVSS", "VL": "DIVMTQSPSSLSVSLGDRVTITCQASQSIGSVNALAWYQQKPGQSLKLLIHGASRLQTGVPSRFSGSGSGTSFTLAISGVEAEDLATYYCLQDYAWPLTFGQGTKVELK"}}, "molecular_target": "recombinant human IL-22R (R&D Systems / Biotechne 2770-LR) (human) (UniProt Q8N6P7)", "sequence (Q8N6P7 16-228 limits assumed)": "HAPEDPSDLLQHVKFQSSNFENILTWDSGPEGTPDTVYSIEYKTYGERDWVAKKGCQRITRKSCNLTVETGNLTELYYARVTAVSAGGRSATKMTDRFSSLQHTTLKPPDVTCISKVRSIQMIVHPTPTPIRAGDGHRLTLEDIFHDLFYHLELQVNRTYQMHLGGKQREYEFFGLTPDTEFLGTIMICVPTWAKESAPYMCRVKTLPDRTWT", "experiment": "SPR (Biacore), purified Fab"}
{"binder": "B1", "values": [{"measurement": "koff", "value": 0.00035, "unit": "s⁻¹"}]}
